Results: the supplement of paper PMC9112550, “Optimization of the antimicrobial peptide Bac7 by deep mutational scanning” (BMC Biology, 2022)

Tested on: Escherichia coli TOP10
Test: shrunken log2 fold change of peptide-encoding DNA abundance (4.5 h post-induction vs induction); higher = less antimicrobial activity (less host growth inhibition)
Conditions: time post-induction: 4.5 h; library: site-saturation at positions 5, 18, 19, 20
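Further: peptides expressed intracellularly from a pBAD plasmid library in pooled LB shake-flask culture, induced with 0.3% L-arabinose, DNA abundance read by NGS, three biological replicates, DESeq2 with apeglm shrinkage.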

| Sequence | shrunken log2 fold change |
| --- | --- |
| RRIRGRPPRLPRPRPRPRYYPRP | -0.0701 |
| RRIRMRPPRLPRPRPRPREHPRP | 0.402 |
| RRIRFRPPRLPRPRPRPMKCPRP | -0.695 |
| RRIRRRPPRLPRPRPRPEVPPRP | 0.0172 |
| RRIRERPPRLPRPRPRPCYGPRP | -0.274 |
| RRIRARPPRLPRPRPRPKTNPRP | 0.436 |
| RRIRRRPPRLPRPRPRPFDFPRP | -0.146 |
| RRIRLRPPRLPRPRPRPNSCPRP | 0.00169 |
| RRIRTRPPRLPRPRPRPKMMPRP | 0.332 |
| RRIRYRPPRLPRPRPRPNFFPRP | -0.074 |
| RRIRWRPPRLPRPRPRPGFRPRP | 0.221 |
| RRIRDRPPRLPRPRPRPKMQPRP | 0.247 |
| RRIRYRPPRLPRPRPRPHHQPRP | -1.06 |
| RRIRCRPPRLPRPRPRPPAAPRP | 1.78 |
| RRIRWRPPRLPRPRPRPRDWPRP | 0.958 |
| RRIRIRPPRLPRPRPRPLIAPRP | -0.24 |
| RRIRCRPPRLPRPRPRPRVTPRP | 0.23 |
| RRIRNRPPRLPRPRPRPCYHPRP | -0.0967 |
| RRIRPRPPRLPRPRPRPTYLPRP | -0.113 |
| RRIRARPPRLPRPRPRPYNRPRP | -0.186 |
| RRIRERPPRLPRPRPRPWYGPRP | -1.02 |
| RRIRYRPPRLPRPRPRPFWMPRP | -0.297 |
| RRIRSRPPRLPRPRPRPHTNPRP | -0.335 |
| RRIRSRPPRLPRPRPRPEHHPRP | -0.153 |
| RRIRMRPPRLPRPRPRPCEGPRP | -0.00822 |

| Sequence | shrunken log2 fold change |
| --- | --- |
| RRIRDRPPRLPRPRPRPQLWPRP | 0.92 |
| RRIRSRPPRLPRPRPRPFTQPRP | -0.403 |
| RRIRRRPPRLPRPRPRPFWQPRP | 0.0221 |
| RRIRARPPRLPRPRPRPHQVPRP | -0.17 |
| RRIRSRPPRLPRPRPRPIDSPRP | -0.0241 |
| RRIRCRPPRLPRPRPRPLQTPRP | 0.443 |
| RRIRVRPPRLPRPRPRPQLRPRP | 0.0648 |
| RRIRDRPPRLPRPRPRPQIWPRP | 0.352 |
| RRIRWRPPRLPRPRPRPPVTPRP | 0.283 |
| RRIRPRPPRLPRPRPRPYVEPRP | -0.415 |
| RRIRNRPPRLPRPRPRPVGIPRP | -0.2 |
| RRIRTRPPRLPRPRPRPSTFPRP | -0.49 |
| RRIRKRPPRLPRPRPRPTWHPRP | 0.371 |
| RRIRNRPPRLPRPRPRPTPDPRP | 0.17 |
| RRIRTRPPRLPRPRPRPAFMPRP | -0.0227 |
| RRIRMRPPRLPRPRPRPQNIPRP | -0.726 |
| RRIRVRPPRLPRPRPRPGAYPRP | -0.0376 |
| RRIRARPPRLPRPRPRPFMTPRP | 0.178 |
| RRIRRRPPRLPRPRPRPCYTPRP | -0.112 |
| RRIRDRPPRLPRPRPRPCHVPRP | -0.0466 |
| RRIRCRPPRLPRPRPRPKPKPRP | 0.407 |
| RRIRERPPRLPRPRPRPAIDPRP | -0.457 |
| RRIRIRPPRLPRPRPRPIIHPRP | -0.667 |
| RRIRVRPPRLPRPRPRPQWQPRP | 0.0741 |
| RRIRFRPPRLPRPRPRPTIDPRP | 0.103 |

| Sequence | shrunken log2 fold change |
| --- | --- |
| RRIRMRPPRLPRPRPRPIDKPRP | -0.197 |
| RRIRWRPPRLPRPRPRPETGPRP | 0.396 |
| RRIRQRPPRLPRPRPRPKWNPRP | -0.216 |
| RRIRQRPPRLPRPRPRPDEAPRP | -0.0116 |
| RRIRNRPPRLPRPRPRPPMSPRP | -0.0527 |
| RRIRPRPPRLPRPRPRPPGPPRP | 0.576 |
| RRIRMRPPRLPRPRPRPTVEPRP | 3.68 |
| RRIRGRPPRLPRPRPRPECGPRP | 1.71 |
| RRIRNRPPRLPRPRPRPSWTPRP | -0.211 |
| RRIRPRPPRLPRPRPRPFITPRP | -0.678 |
| RRIRCRPPRLPRPRPRPYGHPRP | -0.0546 |
| RRIRYRPPRLPRPRPRPCMMPRP | 0.00911 |
| RRIRYRPPRLPRPRPRPGWHPRP | 0.00731 |
| RRIRARPPRLPRPRPRPERQPRP | 1.13 |
| RRIRIRPPRLPRPRPRPDIMPRP | -0.121 |
| RRIRNRPPRLPRPRPRPPGKPRP | 0.484 |
| RRIRDRPPRLPRPRPRPRKHPRP | -0.134 |
| RRIRIRPPRLPRPRPRPMNIPRP | -0.0512 |
| RRIRFRPPRLPRPRPRPHMCPRP | -1.24 |
| RRIRRRPPRLPRPRPRPYANPRP | -0.0552 |
| RRIRGRPPRLPRPRPRPACIPRP | 0.666 |
| RRIRTRPPRLPRPRPRPIEDPRP | 0.0177 |
| RRIRYRPPRLPRPRPRPIVIPRP | -0.0448 |
| RRIRNRPPRLPRPRPRPPMGPRP | -0.0346 |
| RRIRPRPPRLPRPRPRPESTPRP | 0.118 |

| Sequence | shrunken log2 fold change |
| --- | --- |
| RRIRFRPPRLPRPRPRPTNPPRP | -0.0887 |
| RRIRARPPRLPRPRPRPRTEPRP | 0.391 |
| RRIRHRPPRLPRPRPRPHMFPRP | -0.358 |
| RRIRMRPPRLPRPRPRPCYSPRP | -0.711 |
| RRIRTRPPRLPRPRPRPNPIPRP | -0.157 |
| RRIRERPPRLPRPRPRPIMNPRP | -1.02 |
| RRIRYRPPRLPRPRPRPQHAPRP | -0.313 |
| RRIRRRPPRLPRPRPRPMTSPRP | -0.00455 |
| RRIRARPPRLPRPRPRPIWRPRP | 0.426 |
| RRIRERPPRLPRPRPRPHPFPRP | -0.235 |
| RRIRRRPPRLPRPRPRPSYQPRP | -0.141 |
| RRIRIRPPRLPRPRPRPADFPRP | -0.162 |
| RRIRHRPPRLPRPRPRPHEEPRP | -0.206 |
| RRIRPRPPRLPRPRPRPANSPRP | 0.00247 |
| RRIRQRPPRLPRPRPRPVQMPRP | -0.163 |
| RRIRTRPPRLPRPRPRPFSRPRP | 0.0136 |
| RRIRMRPPRLPRPRPRPELAPRP | 3.6 |
| RRIRQRPPRLPRPRPRPHLHPRP | -0.177 |
| RRIRERPPRLPRPRPRPGKAPRP | -0.0498 |
| RRIRLRPPRLPRPRPRPSVKPRP | -0.0487 |
| RRIRPRPPRLPRPRPRPITIPRP | -0.197 |
| RRIRERPPRLPRPRPRPSREPRP | 0.125 |
| RRIRCRPPRLPRPRPRPQDFPRP | 0.0295 |
| RRIRPRPPRLPRPRPRPLAFPRP | -0.0389 |
| RRIRHRPPRLPRPRPRPSDAPRP | -0.293 |

| Sequence | shrunken log2 fold change |
| --- | --- |
| RRIRCRPPRLPRPRPRPAHYPRP | -0.127 |
| RRIRIRPPRLPRPRPRPYEGPRP | -0.00931 |
| RRIRNRPPRLPRPRPRPWCQPRP | -0.0618 |
| RRIRPRPPRLPRPRPRPVKKPRP | -0.016 |
| RRIRWRPPRLPRPRPRPSCKPRP | -0.183 |
| RRIRCRPPRLPRPRPRPCDKPRP | -0.266 |
| RRIRNRPPRLPRPRPRPVWVPRP | 0.0909 |
| RRIRFRPPRLPRPRPRPEIIPRP | -0.0938 |
| RRIRTRPPRLPRPRPRPTFTPRP | 0.00867 |
| RRIRPRPPRLPRPRPRPRMYPRP | -0.128 |
| RRIRSRPPRLPRPRPRPWYTPRP | 0.0361 |
| RRIRHRPPRLPRPRPRPRYFPRP | -0.439 |
| RRIRFRPPRLPRPRPRPCFFPRP | -0.378 |
| RRIRTRPPRLPRPRPRPFPIPRP | -1.16 |
| RRIRYRPPRLPRPRPRPYQMPRP | -0.344 |
| RRIRQRPPRLPRPRPRPHNWPRP | -0.311 |
| RRIRERPPRLPRPRPRPLVQPRP | 0.0736 |
| RRIRNRPPRLPRPRPRPIFLPRP | -0.182 |
| RRIRTRPPRLPRPRPRPNQGPRP | -0.493 |
| RRIRMRPPRLPRPRPRPQVLPRP | 0.25 |
| RRIRMRPPRLPRPRPRPWTNPRP | -0.01 |
| RRIRGRPPRLPRPRPRPNPDPRP | 0.221 |
| RRIRLRPPRLPRPRPRPSQQPRP | -0.0225 |
| RRIRIRPPRLPRPRPRPWKTPRP | -0.197 |
| RRIRLRPPRLPRPRPRPYTWPRP | -0.716 |

| Sequence | shrunken log2 fold change |
| --- | --- |
| RRIRWRPPRLPRPRPRPYDSPRP | -0.377 |
| RRIRQRPPRLPRPRPRPCTMPRP | -0.804 |
| RRIRCRPPRLPRPRPRPTGCPRP | -0.0358 |
| RRIRSRPPRLPRPRPRPCTLPRP | -0.399 |
| RRIRVRPPRLPRPRPRPHYMPRP | -1.03 |
| RRIRYRPPRLPRPRPRPEMDPRP | -0.338 |
| RRIRERPPRLPRPRPRPTQSPRP | 0.329 |
| RRIRWRPPRLPRPRPRPMGVPRP | -0.00743 |
| RRIRMRPPRLPRPRPRPCWVPRP | 0.827 |
| RRIRRRPPRLPRPRPRPVLMPRP | 0.146 |
| RRIRLRPPRLPRPRPRPLIFPRP | -0.656 |
| RRIRDRPPRLPRPRPRPYLCPRP | -0.148 |
| RRIRWRPPRLPRPRPRPQSGPRP | 0.186 |
| RRIRERPPRLPRPRPRPMKSPRP | -0.163 |
| RRIRKRPPRLPRPRPRPWFWPRP | 0.442 |
| RRIRDRPPRLPRPRPRPESCPRP | 0.629 |
| RRIRQRPPRLPRPRPRPRRWPRP | 0.326 |
| RRIRSRPPRLPRPRPRPMEFPRP | 0.00489 |
| RRIRWRPPRLPRPRPRPWAQPRP | -0.381 |
| RRIRQRPPRLPRPRPRPQNTPRP | -0.666 |
| RRIRRRPPRLPRPRPRPIAAPRP | 0.521 |
| RRIRWRPPRLPRPRPRPWWQPRP | 0.16 |
| RRIRLRPPRLPRPRPRPSANPRP | -0.0303 |
| RRIRVRPPRLPRPRPRPQYIPRP | -0.655 |
| RRIRRRPPRLPRPRPRPAYGPRP | 0.286 |
